Source: the DeepSol protein solubility set

Assay: soluble on expression in E. coli; label from the status in PepcDB or PDB records

| Sequence | soluble on expression in E. coli |
| --- | --- |
| MGSDKIHHHHHHMKKFLENSIHQAIKACFFFLGKLPKKKLFIFESFHGKQYSDNPRAIFEYIRDNCPEYQCIWAVKKGYEMPFVEENVPFVKRLSWRWLWLMPRAQYWVFNTRMPAWMYKNQTTIYIQTWHGTPLKKLGLDIETVKMPEHETESYKLEVIQEAKRWDYLISPNAYSTRVFRQAFHYEGEILEIGYPRNDLLVCENKDKIAFSVRNQLGLAANKKIILYAPTWRDDESIRKGAYRFTNHLPVEQLLEIDSSIVILTRLHYLIAESFDISAFGSRVIDVSSYPDINQLYLIADLLITDYSSVMFDFALTKKPMLFFMYDKEKYQNSTRGFYFDPTAILPGKIVTDTDSLVTSVKNVLFSKTEQEQRLYVQFFREFCLENQDATRQLISEILKR | not soluble |
| MGSDKIHHHHHHMGLLLKTAASPFACSSGMQNFIANPELESYLRLNRAACGEWTLALQDLLGCSGLACDLSRPKEEVGSLSALGVGGGLVAALSVRQGLELQHCRLESVLLVFPVQGHCELLSDGAAANTLLPFQLILPGQTFSLRVTAESRLLLLMPAEQPQAVQLAAATSEAITLSIQRFLYQAGFLQDHHQGCQAAETVLREVREILAGSSGVTKVTEAVPEPDRRLLKAISKIRTEPDWPFDLQELSSHAGVSERNLYYLMKRQTGMTPYRYYQRCRLIRVRRRLVDCQCAVPHISRYAGDEGFSHFGRFAALYREHFGELPSETVQWRRRLQAQELLAPALS | not soluble |
| MGSDKIHHHHHHMEVIFKRPKALSDREFTYCPGCHHGIIHRLIAEVIDELDIQEKTIMVAPVGCSVFAYEFFDVDGTVAPHGRALAVATGIKRALPDMIVFTYQGDGDLAAIGIAETIHAANRGEKLTTIFVNNAVYGMTGGQMAPTTLLGQKTTTTPYGRTAANDGYPLHVSEALSTIDGVAYLERTTVSTTKDILNTKKAIKKAFLAQIKGLGFGMVEVLSTCPTNWGMSPVEAQNWLLENMVKEFPPKVFVDKVGD | not soluble |
| MATAVELALLKQPYFDLNALCKTVFVTYKAGPGLKKIVTVQAQYVDICNKPNVRGTVVSLPGSPGSHNDIKYMRDSFEKHNIRLICVNWPGSEFVTGGMNDTYTNAERNSYAKALMEKLELKKVEKLILLGHSRGGESALQLACTLSDDRSWPLIGAVMLNSPGFVVHRGISIRMGTINTVSFLVKLRWKIVDCILFPVLDWFYNDFVGLRVSDGKVCAAAMLPMQTFAFEEQRASIDEMKKKPWIRMFYAYGSKDFLVDESDSEELAMHFGGDHYIIHSKKESEETIPKIWNSYERGQSYVTANFTEEGHYLHKTYPEFLIQIFGGIFDVKTEKS | not soluble |
| MGSDKIHHHHHHVLDKIELFILDMDGTFYLDDSLLPGSLEFLETLKEKNKRFVFFTNNSSLGAQDYVRKLRNMGVDVPDDAVVTSGEITAEHMLKRFGRCRIFLLGTPQLKKVFEAYGHVIDEENPDFVVLGFDKTLTYERLKKACILLRKGKFYIATHPDINCPSKEGPVPDAGSIMAAIEASTGRKPDLIAGKPNPLVVDVISEKFGVPKERMAMVGDRLYTDVKLGKNAGIVSILVLTGETTPEDLERAETKPDFVFKNLGELAKAVQ | soluble |
| MLEALKTANKTVGMKQSLKAVESLKAKQVFIAKDADEHVVARIKELCIKNNIPIVYVDTMKQLGKACNIDVGASVACLL | not soluble |
| MEFKVEDDRISLYADSKRVSWVLYRKHSGEIELLATFTAKGEEGKGYASKVVGEALNYARGFEKIKVSCPYIKSWIEKHGFDRDVEYTKLLEFKEAVEKFNRFHSPEAVAEFMKEEGEVVYVRFTGPFCVSCGVYDYFEDLTQDAEVLDYEEVEDGFIVRYRLL | not soluble |
| MARLNVNPTRMELSRLKKQLTTATRGHKLLKDKQDELMRRFIALVKENNELRIQVEQEVTDALSNFVLANATLNEAFIEELVAIPAEKVELEIIEQNILSVPVPKMIFDYDESVQEAPLDYGYVNSNSELDQAFAKISSILPKLLALANVEKTCQLLSKEIEKTRRRVNALEYMTIPQLEETIYYIQMKLEENERGEITRLIKIKSMNKENLEHHHHHH | not soluble |
| MAHHHHHHMIVELNPANFHKVVKDPSKNVFVMFYAPWCGHCNNMKPMWLELADKYPTAEDVIIARIDASEYRGIAKEFDIRGFPTLKFFSKRDKSGEIEYDGPRELSAFVAYVATNKQ | not soluble |
| MIKSALLVLEDGTQFHGRAIGAEGTAVGEVVFNTSMTGYQEILTDPSYSRQIVTLTYPHIGNVGTNASDEESSAVHAQGLVIRDLPLIASNYRNEEGLSEYLKRHNIVAIADIDTRKLTRLLREKGAQNGCIIVGELSDAALALEKAKAFPGLKGMDLAKEVTTKEMYQWLQGSWTLEGDLPAAKQPEDLPFHVVAYDYGVKRNILRMLVDRGCRLTVVPAQTPAEDVLKLNPDGIFLSNGPGDPEPCDYAITAIKRFLETDIPVFGICLGHQLLALASGAKTVKMKFGHHGGNHPVKDLDASCVMITAQNHGFAVDETSLPSNLRTTHVSLFDGSLQGLHRTDKAAFSFQGHPEASPGPHDAAPLFDHFIELIEAYRASSVSLNCSNSHK | not soluble |
| MSLNKEPDPPLAESLRPQHIDEVIGQSHLLGEGKPLRLCFMGSKLHSMILWGPPGVGKTTIARLTAQAFDCEWIALSAVFSGVKDIRAAVEKAQEYLIHDKQTILFIDEIHRFNKAQQDALLPYTESGLITFIGATTENPSFEVNSALLSRAQVYVLKPLSEQELKLLFLRAHQRALSSLQFTEEAVDFLISCADGDARRLLNLLEQTKTACLTIKTAVVDVELLHNVIVQNSRRFDKGGEAFYDQISALHKSVRGSNPDAALYWLCRMLDGGVDPYYLARRIIRMSWEDIGLADPKAIQIANDAAATYERLGSPEGELALAQAVIYLSVAAKSNAGYVAFNQAMEFIKRDKSREVPIHLRNAPTQLMKKLGYGHEYRYAHDEPHGYAAGECYLPEGMPEVNWYNPVQRGLETKIAEKLAFLRQLDKDVKKEGHHHHHH | soluble |
| MNVVFAVKQYISKMIEDSGPGMKVLLMDKETTGIVSMVYTQSEILQKEVYLFERIDSQNREIMKHLKAICFLRPTKENVDYIIQELRRPKYTIYFIYFSNVISKSDVKSLAEADEQEVVAEVQEFYGDYIAVNPHLFSLNILGCCQGRNWDPAQLSRTTQGLTALLLSLKKCPMIRYQLSSEAAKRLAECVKQVITKEYELFEFRRTEVPPLLLILDRCDDAITPLLNQWTYQAMVHELLGINNNRIDLSRVPGISKDLREVVLSAENDEFYANNMYLNFAEIGSNIKNLMEDFQKKKPKEQQKLESIADMKAFVENYPQFKKMSGTVSKHVTVVGELSRLVSERNLLEVSEVEQELACQNDHSSALQNIKRLLQNPKVTEFDAARLVMLYALHYERHSSNSLPGLMMDLRNKGVSEKYRKLVSAVVEYGGKRVRGSDLFSPKDAVAITKQFLKGLKGVENVYTQHQPFLHETLDHLIKGRLKENLYPYLGPSTLRDRPQDIIVFVIGGATYEEALTVYNLNRTTPGVRIVLGGTTVHNTKSFLEEVLASGLHSRSKESSQVTSRSASRR | not soluble |
| MSLGETYAPQCAGPAPEPRTLPRTLPDGACDCHFHVFGDENGQPFSPHRSYTPPPAPLEAFQRVQKTLGLSRGVIVQPSVYGADNSTTLAALKEAGSAFRGVVVIDADTDTETLWAMHRLGVRGVRVNLIFKSGVEVSDVAALAEKVAPLGWHLQLLIDITEFADLYETVASLPVAVVIDHMGHMPTSCGLGHPGFTDLLRLLKEGRVWVKLSGAYRFTASKDFPYDDVTPYARALIEANPNRLLWASDWPHPCIPVPMPNDASLLEMLFNWVENDDALIKQILVDNPAKLYGEGHHHHHH | not soluble |
| REPLSFSLFSQPECVEQPERLAQVFALLVNAHYQTSPNDLFALLQDEAMTLFVAYQGEVCVGCVLAVREGELDAPTIEAIQLGTRRPKGHLTPVTLANQLGISQAARQSCWRILRIAVHPDCQRQGIGSQLLTHFIAQHHADYYATSFGVSEDLLPFWLANHFVPIKLGSHRDQASGCYSLLMVRG | not soluble |
| GPGSMRTQTFPQQPRAPGMLPHLSNGAAAPAAPQVPAVQEHTDVVHDTQFDYYGLQLATASSDRTIGIHVARAGAPLNRVATLTGHEGPVWMVSWAHPRFGNLLASASYDQKAIIWKEIRQGAPKWTPVHVIDIHHGSVNAVQWAPEEYGPVVATASSDGTVAITAYRDGCWQPSVKLSNNSNQIAHAMGATSVTFAPFKSELADHVVVASGGCDGHVRLWVSASSPERGLGFELHQVIEAHADWVRDVAFCPTSPASRFVILASCGQDKTVVMYRKPWDQLCAETSEGVSQATEWERSVIEFAEPVWRLSWAPSGEMLVVTNAKSEVFVLREGVDFTEPWIKLPLKDFQQ | not soluble |
| ASMGKSAVIFVERATPATLTELKDALSNSILSVRDPWSIDFRTYRCSIKNLPADVSKLMYSITFHHHGRQTVLIKDNSAMVTTAAAADIPPALVFNGSSTGVPESIDTILSSKLSNIWMQRQLIKGDAGETLILDGLTVRLVNLFSSTGFKGLLIELQADEAGEFETKIAGIEGHLAEIRAKEYKTSSDSLGPDTSNEICDLAYQYVRALEL | soluble |
| MGSDKIHHHHHHMLQQYHTKLKGTLALTDSYLTEKALQKEKGLYKFIWVRQGSITVEIDHQEMVLSKDDVISLTHLQHLEFKSIDGEYMTLLFNSNFYCIYGNDHEVSCSGFLFNGSSHLVRFTLNEEERRQLDQITEAMENEFTVSDSLQEEMLRILLKRFIIQCTRIARQRLDITREKESGFEIVRQYYNLVDEHYRTKKQVQDYADMLHKSPKTLSNIFSTCKLPSPLRVIHERVEAEAKRLLLYSNKSAKEIADILGFEDQASFSRFFKNMTGQSAVQFRNTEVGKN | not soluble |
| SSGRSVRAETRSRAKDDIKKVMAAIEKVRKWEKKWVTVGDTSLRIFKWVPVTDSKEKEKSKSNSSAAREPNGFPSDASANSSLLLEFQDENSNQSSVSDVYQLKVDSSTNSSPSPQQSESLSPAHTSDFRTDDSQPPTLGQEILEEPSLPSSEVADEPPTLTKEEPVPLETQVVEEEEDSGAPPLKRFCVDQPTVPQTASES | soluble |
| MNIDLNADLGEGCASDSELLTLVSSANIACGFHAGDAQTMLTCVREALKNGVAIGAHPSFPDRDNFGRTAMVLPPETVYAQTLYQIGALGAIVQAQGGVMRHVKPHGMLYNQAAKDPHLAQAIAKAVHDYDPSLILVGLAGSELIRAGERHRLVTRQEVFADRGYQADGSLVPRMQPGALIHDEEQALAQTLDMVQAGRVKSVTGVWTTVTAQTVCIHGDGEYALAFARRLRAAFNARNIHVIALEHHHHHH | soluble |
| MTIDVWMQHPTQRFLHGDMFASLRRWTGGSIPETDIPIEATVSSMDAGGVTLGLLSAWRGPNGQDLISNDAVAEWVRLYPNRFAGLAAVDLDRPMAAVRELRRRVGEGFVGLRVVPWLWGAPPTDRRYYPLFAECVQSAVPFCTQVGHTGPLRPSETGRPIPYIDQVALDFPELVIVCGHVGYPWTEEMVAVARKHENVYIDTSAYTIKRLPGKLVRFMKTDTGQRKVLFGTNYPMIAHTHALTGLDELGLSDEARRDFLHGNAVRVFKLDPRGKVQT | not soluble |
| MDVEKLNLDNIISRLLEVRGSKPGKNVQLTESEIKGLCQKSREIFLSQPILLELEAPLKICGDVHGQYYDLLRLFEYGGFPPESNYLFLGDYVDRGKQSLETICLLLAYKIKYPENFFLLRGNHECASINRIYGFYDECKRRYNIKLWKTFTDCFNCLPVAAIIDEKIFCCHGGLSPDLQSMEQIRRIMRPTDVPDQGLLCDLLWSDPDKDVTGWGENDRGVSFTFGPEVVAKFLHKHDLDLICRAHQVVEDGYEFFAKRQLVTLFSAPNYCGEFDNAGSMMTVDETLMCSFQILKPADKKKYPYGAGGVGSNRPVTPPRNAPAAQPKKGAKK | not soluble |
| MSALTLKGTSYKMCTDKMSFVKNPTDTGHGTVVMQVKVPKGAPCKIPVIVADDLTAAINKGILVTVNPIASTNDDEVLIEVNPPFGDSYIIVGTGDSRLTYQWHKEGSSIGK | soluble |
